Data on one protein can be found in PMC13379273 (Advanced Science, 2026).

The data set deals with the molecule itself. As to the kind of experiment: SEC; […] (20 mM HEPES, 150 mM NaCl pH 7.2), room temperature; […].

B1: Hendra virus W protein (W^HeV), wild type (natural protein)
chain: MDKLDLVNDGLDIIDFIQKNQKEIQKTYGRSSIQQPSTKDRTRAWEDFLQSTSGEHEQAEGGMPKNDGGTEGRNVEDLSSVTSSDGTIGQRVSNTRAWAEDPDDIQLDPMVTDVVYHDHGGECTGHGPSSSPERGWSYHMSGTHDGNVRAVPDTKVLPNAPKTTVPEEVREIDLIGLEDKFASAGLNPAAVPFVPKNQSTPTEEPPVIPEYYYGSGRRGDLSKSPPRGNVNLDSIKIYTSDDEDENQLEYEDEFAKSSSEVVIDTTPEDNDSINQEEVVGDPSDQGLEHPFPLGKFPEKEETPDVRRKDSLMQDSCKRGGVPKRLPMLSEEFECSGSDDPIIQELEREGSHPGGSLRLREPPQSSGNSRNQPDRQLKTGDAASPGGVQRPGTPMPKSRIMPIKKGAQTRSLNMLGRKTCLGRRVVQPGMFADYPPTKKARVLLRRMSN
Take B1: the binding result is “binds”.
